Data: US6610289B2, “Mutated herpes simplex virus type 1 thymidine kinases and uses thereof” (The Board of Trustees of the University of Arkansas, priority 1998, dated 2003)
Read-outs that look alike come from different tables or passages of the source.

Legend:
HSV-1 TK = type: biochemical, herpes simplex virus type 1; conditions: for Decrease in kcat for GCV compared to wild-type enzyme: substrate GCV
Description: For determination of Km values of thymidine and GCV for the four enzymes, the filter binding assay was utilized. The basic reaction components were as above, and the following enzyme concentrations, substrate ranges and times were used under linear initial velocity conditions: for [^3H]thymidine: parent Gln-125TK: 0.1 μg TK, 0.1-4 μM, 10 min; Asn-125TK: 0.2 μg TK, 0.25-10 μM, 15 min; Asp-125TK: 4 μg TK, 0.1-2.5 μM, 30 min; Glu-125TK 0.5 μg TK, 0.5-2.5 μM, 15 min. For [^3H]GCV: parent Gln-125TK: 2 μg TK, 5-100 μM, 15 min; Asn-125TK: 0.6 μg TK, 0.5-15 μM, 15 min; Asp-125TK: Not determined; Glu-125TK 4 μg TK, 50-1000 μM, 25 min. Each reaction was done in triplicate. For calculation of kinetic constants, non-linear regression Michaelis-Menten analyses were done using PSI-PLOT version 5.0 (Poly Software International).
Unlike the substrate screening assays presented in Table 1, linear velocity conditions for each enzyme and substrate were established prior to Km determinations.

HCT-116 cells [1] = test: Cell cycle analysis of GCV treated cells (propidium iodide flow cytometry); type: cell-based, human; conditions: +GCV 25 μM, 24 hours, HCT-116 expressing the TK
Description: Parental HCT-116 cells and each HSV-1 TK expressing cell line were grown to 60% confluency in 25 cm^2 flasks and treated for 24 hours minus (−GCV, panels A, C, E and G) or plus (+GCV, panels B, D, F and H) 25 μM GCV. Cells were fixed in 70% ethanol overnight, and later incubated with RNAase (0.1%) and propidium iodide (1 mg/ml) for […] on ice. Flow cytometry measuring propidium iodide fluorescence was done with a Becton-Dickinson FACScalibur instrument using MODFIT computer software. FIGS. 6A and 6B: HCT-116 cells; FIGS. 6C and 6D: wild-type HSV-1 TK cells; FIGS. 6E and 6F: Asn-125TK cells, FIGS. 6G and 6H: Glu-125TK cells.
Parental HCT-116 cells and each HSV-1 TK expressing cell line were grown to 60% confluency in 25 cm^2 flasks and treated for 24 hours plus or minus 25 μM GCV. Following drug incubation, cells were removed by trypsin and total cell numbers determined. Following two phosphate buffered saline rinsing and centrifugation cycles, the cell pellets were resuspended in 1 ml of 70% ethanol and stored at 4° C. until further analysis. Just prior to cell cycle analysis, the ethanol was removed and cell pellets were resuspended in phosphate-buffered saline plus RNAase (0.1%) and propidium iodide (1 mg/ml) for 30 minutes on ice. Flow cytometry measuring propidium iodide fluorescence was done with a Becton-Dickinson FACScalibur instrument. Cell cycle distribution of the cells were determined using MODFIT computer software
GCV has also been previously reported to induce S and G2-M phase cell cycle arrest in HSV-1 TK expressing glioma and melanoma cell lines (36-38). Therefore, the effect of 24 hr GCV treatment on the cell cycling of parental and the three HSV-1 TK-expressing cell lines was examined by flow cytometry of propidium iodide stained cells. As shown in FIGS. 6A and 6B and Table 5, GCV treatment of HCT-116 parental, non-HSV-1 TK-expressing cells had little effect on the percentage of cells in each phase of the cell cycle as compared with untreated cells. In the wild-type and Asn-125TK-expressing cell lines, GCV treatment (FIGS. 6D and 6F) led to an increase in the proportion of cells in the S-phase, and undetectable percentages in G2-M phase when compared to untreated cultures (FIGS. 6C and 6E). For the Glu-125TK-expressing cells, over 50% of the GCV treated cells were in S-phase and less than 3% were in G2-M (FIG. 6H).

HCT-116 cells [2] = test: Clonal dilution assay for bystander effect cell killing; type: cell-based, human; conditions: 25 μM GCV 24 hours
Description: Each of the three HSV-1 TK expressing cell lines were plated with parental HCT-116 cells (total 2×10^5/well) in the following proportions: (parental: HSV-1TK cells) 100%:0; 95%:5%; 90%:10%; 75%:25%; 50%:50% and 0:100%. […] After 7 days, surviving cell colonies were fixed in 100% methanol, stained with 0.1% methylene blue and counted.
For determination of GCV sensitivity, parental HCT-116 and each HSV-1 TK expressing cells were seeded in 24 well plates (2×10^5/well) in 1 ml of media. The next day, 0, 0.1, 1 or 10 μM GCV was added to each cell line in triplicate. After 24 hours, for each well the media was removed, cells were rinsed twice in fresh media, trypsinized, then media was added to 1 ml per well. Each well of cells was then sequentially diluted from 1:10 to 1:10,000 in 1 ml of fresh media on a separate 24 well plate. After 7 days, surviving cell colonies were fixed in 100% methanol, stained with 0.1% methylene blue and counted. […]
It has been previously established that HCT-116 cells expressing HSV-1 TK are sensitive to bystander effect cell death via a connexin-43 gap junction mediated transfer of GCV metabolites (24). […] In these same cell lines, a greater than 4-log reduction in cell colony numbers was detected with 25% and 50% proportions of HSV-1 TK-expressing cells. […]

[3] = substrate ganciclovir, read-out: Km ganciclovir
[4] = substrate thymidine, read-out: Km thymidine

| Substance | Decrease in kcat for GCV compared to wild-type enzyme (HSV-1 TK) | kcat ganciclovir (HSV-1 TK; substrate ganciclovir) | Km (HSV-1 TK; [3]) | Change of kcat for thymidine relative to wild-type (in words) (HSV-1 TK; substrate thymidine) | Increase of Km for thymidine relative to wild-type enzyme (HSV-1 TK; substrate thymidine) | kcat thymidine (HSV-1 TK; substrate thymidine) | Km (HSV-1 TK; [4]) | Cell cycle phase G0/G1 (HCT-116 cells [1]) | Cell cycle phase S (HCT-116 cells [1]) | Cell cycle phase G2/M (HCT-116 cells [1]) | Cell cycle phase G2/M (HCT-116 cells [1]; listed as WTGln-125TK) | Decrease in kcat for thymidine relative to wild-type (HSV-1 TK; substrate thymidine) | Bystander effect: decrease in cell colony numbers (HCT-116 cells [2]; 10% proportions) | Bystander effect: decrease in cell colony numbers (HCT-116 cells [2]; 50% proportions) |
| --- | --- | --- | --- | --- | --- | --- | --- | --- | --- | --- | --- | --- | --- | --- |
| Asn-125 | 6 fold | 0.08 s⁻¹ | 50 µM | doubled | ~20 fold | 0.13 s⁻¹ | 20 µM | 70.0% | 30.0% | – | – | – | – | – |
| Gln-125 (WT): wild-type herpes simplex virus type 1 thymidine kinase with glutamine at position 125, parent enzyme [reference compound] | – | 0.47 s⁻¹ | 69 µM | – | – | 0.06 s⁻¹ | 0.9 µM | 60.1% | 39.9% | undetectable | 0% | – | – | – |
| Glu-125 | 12 fold | 0.04 s⁻¹ | 473 µM | – | approximately 3 fold | 0.003 s⁻¹ | 3 µM | 39.0% | – | – | – | 20 fold | 1 log | ~3 log |
